Measured values from article PMC7969741.
Non-standard residues stand in square brackets, D forms with d.

Molecular target: αV integrin (human (endogenous in SV40 immortalized human chondrocytes))

cyclo(RGD[dF]K) (also: conjugated to 3' end of Cy3-labelled 18-nt ssDNA) [cyclic peptide RGDfK (cRGDfK)]
tension gauge tether (TGT) assay: rupture of RGDfK-dsDNA tethers of 43 and 54 pN tension tolerance and loss of cell attachment, SV40 chondrocytes prechallenged with shear stress: > 43 pN
